The target of this experiment is T1, α4β7 (RPMI 8866 cells) (Homo sapiens, UniProt P13612+P26010).
T1 construct: host or cells: RPMI 8866 cells
T1 sequence (P13612 34-1032): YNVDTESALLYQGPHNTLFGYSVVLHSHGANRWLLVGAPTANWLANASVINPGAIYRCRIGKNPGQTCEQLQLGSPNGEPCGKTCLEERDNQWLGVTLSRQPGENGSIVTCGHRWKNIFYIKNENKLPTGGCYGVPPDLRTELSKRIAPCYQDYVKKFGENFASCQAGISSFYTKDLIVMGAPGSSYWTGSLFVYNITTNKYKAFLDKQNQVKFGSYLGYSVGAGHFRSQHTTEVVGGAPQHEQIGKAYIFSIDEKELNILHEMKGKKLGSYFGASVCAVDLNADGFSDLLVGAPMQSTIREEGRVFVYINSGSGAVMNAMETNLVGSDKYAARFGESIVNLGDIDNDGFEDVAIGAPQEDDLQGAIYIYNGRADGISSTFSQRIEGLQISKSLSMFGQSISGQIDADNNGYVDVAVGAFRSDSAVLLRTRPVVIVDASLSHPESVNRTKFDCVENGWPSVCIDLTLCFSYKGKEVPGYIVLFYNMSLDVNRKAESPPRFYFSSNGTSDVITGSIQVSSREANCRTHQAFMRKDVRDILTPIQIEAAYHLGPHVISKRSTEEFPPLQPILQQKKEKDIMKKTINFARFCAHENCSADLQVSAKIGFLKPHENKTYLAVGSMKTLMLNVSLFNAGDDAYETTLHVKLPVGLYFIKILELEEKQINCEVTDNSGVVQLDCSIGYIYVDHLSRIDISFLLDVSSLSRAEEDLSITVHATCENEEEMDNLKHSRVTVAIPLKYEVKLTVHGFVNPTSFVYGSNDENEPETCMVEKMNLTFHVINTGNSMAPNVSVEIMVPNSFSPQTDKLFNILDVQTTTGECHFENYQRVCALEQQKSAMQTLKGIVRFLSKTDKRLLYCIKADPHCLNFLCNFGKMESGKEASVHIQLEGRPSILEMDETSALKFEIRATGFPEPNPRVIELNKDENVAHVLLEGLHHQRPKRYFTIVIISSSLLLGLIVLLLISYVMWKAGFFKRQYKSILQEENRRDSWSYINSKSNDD
T1 sequence (P26010 20-798): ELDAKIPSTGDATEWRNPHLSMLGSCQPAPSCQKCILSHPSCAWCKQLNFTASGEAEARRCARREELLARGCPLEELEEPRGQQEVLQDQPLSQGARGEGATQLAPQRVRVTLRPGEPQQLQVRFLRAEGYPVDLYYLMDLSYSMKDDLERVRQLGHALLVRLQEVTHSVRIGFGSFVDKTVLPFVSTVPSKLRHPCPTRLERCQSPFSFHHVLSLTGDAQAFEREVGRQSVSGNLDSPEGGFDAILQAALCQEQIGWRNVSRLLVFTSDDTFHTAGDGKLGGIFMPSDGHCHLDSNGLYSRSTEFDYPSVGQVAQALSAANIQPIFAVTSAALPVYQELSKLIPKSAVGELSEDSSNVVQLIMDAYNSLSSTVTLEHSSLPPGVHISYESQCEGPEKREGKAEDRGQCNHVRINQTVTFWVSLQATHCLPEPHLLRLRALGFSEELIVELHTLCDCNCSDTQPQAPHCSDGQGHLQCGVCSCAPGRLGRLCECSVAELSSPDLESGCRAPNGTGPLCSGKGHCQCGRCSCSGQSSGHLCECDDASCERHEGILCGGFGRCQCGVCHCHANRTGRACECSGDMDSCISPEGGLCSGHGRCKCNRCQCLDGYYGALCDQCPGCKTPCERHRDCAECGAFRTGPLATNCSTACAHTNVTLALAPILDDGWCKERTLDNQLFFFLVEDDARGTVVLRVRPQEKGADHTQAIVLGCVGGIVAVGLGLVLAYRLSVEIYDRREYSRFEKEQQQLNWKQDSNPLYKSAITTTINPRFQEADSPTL
As to the kind of experiment: α4β7-MAdCAM Cell Adhesion Assay. Particulars: N-Me-Arg substituted, as compared to SEQ ID NO:39. In kind it is cell-based. As to the method:
α4β7-MAdCAM Cell Adhesion Assay
RPMI 8866 cells (Sigma #95041316) are cultured in RPMI 1640 HEPES medium (Invitrogen #22400-089) supplemented with 10% serum (Fetal Bovine Serum, Invitrogen # 16140-071), 1 mM sodium pyruvate (Invitrogen #11360-070), 2 mM L-glutamine (Invitrogen # 25030-081) and Penicillin-Streptomycin (Invitrogen # 15140-122) at 100 units of penicillin and 100 μg of streptomycin per ml. The cells are washed two times in DMEM medium (ATCC #30-2002) supplemented with 0.1% BSA, 10 mM HEPES pH 7 and 1 mM MnCl2. The cells are re-suspended in supplemented DMEM medium at a density of 4×10^6 cells/ml.
A Nunc MaxiSorp plate was coated with rh MAdCAM-1/Fc Chimera (R&D #6065-MC) at 200 ng per well in 50 ul per well in 1×PBS and incubated at 4° C. overnight. The solution was then removed by shaking, blocked with 250 ul per well PBS containing 1% BSA, and incubated at 37° C. for 1 hr. The solution was removed by shaking. peptides are diluted by serial dilution in a final volume of 50 ul per well (2× concentration). To each well, 50 ul of cells (200,000 cells) are added and the plate is incubated at 37° C., 5% CO2 for 30-45 min to allow cell adhesion. […] The plate is shaken for 5 min and the absorbance at 570 nm is measured. To calculate the dose response, the absorbance value of control wells not containing cells is subtracted from each test well.

Bridge positions count the residues as written; N and C are the ends. Square brackets hold non-standard residues; d marks the D form. Ends that are not written are not given here. NMeR = CN[C@@H](CCCNC(=N)N)C(=O)O

Consider “SEQ ID NO: 48: integrin antagonist peptide substituted with N-Me-Arg (C[NMeR]SDTLCK; disulfide 1-7)”, for which the “potency for α4β7 in cell adhesion assay” value is “increased potency”.
